Results from PMC11187625, “New Labeled PET Analogues Enable the Functional Screening and Characterization of PET-Degrading Enzymes” (ACS Sustainable Chemistry & Engineering, 2024).

How the values were obtained:
Test in all cases: fluorescence, 4-mU release
Conditions in all cases: 0.1 M phosphate pH 7, 30 °C, 5% DMSO
[1] = substrate: CCOCCOC(=O)c1ccc(C(=O)Oc2ccc3c(C)cc(=O)oc3c2)cc1; format: biochemical, Thermothelomyces thermophilus
Description: (§1) fluorescence, 4-mU release on StGE2 (glucuronoyl esterase)

[2] = substrate: COC(=O)c1ccc(C(=O)Oc2ccc3c(C)cc(=O)oc3c2)cc1; format: biochemical, Thermothelomyces thermophilus
Description: as §1

[3] = substrate: CCOCCOC(=O)c1ccc(C(=O)Oc2ccc3c(C)cc(=O)oc3c2)cc1; format: biochemical, Pseudideonella sakaiensis
Description: (§2) fluorescence, 4-mU release on IsPETase

[4] = substrate: COC(=O)c1ccc(C(=O)OCCOC(=O)c2ccc(C(=O)Oc3ccc4c(C)cc(=O)oc4c3)cc2)cc1; format: biochemical, Pseudideonella sakaiensis
Description: as §2

[5] = substrate: COC(=O)c1ccc(C(=O)Oc2ccc3c(C)cc(=O)oc3c2)cc1; format: biochemical, Pseudideonella sakaiensis
Description: as §2

[6] = substrate: CCOCCOC(=O)c1ccc(C(=O)Oc2ccc3c(C)cc(=O)oc3c2)cc1; format: biochemical, unidentified prokaryotic organism
Description: (§3) fluorescence, 4-mU release on LCC^ICCG (leaf-branch compost cutinase ICCG variant)

[7] = substrate: COC(=O)c1ccc(C(=O)OCCOC(=O)c2ccc(C(=O)Oc3ccc4c(C)cc(=O)oc4c3)cc2)cc1; format: biochemical, unidentified prokaryotic organism
Description: as §3

[8] = substrate: COC(=O)c1ccc(C(=O)Oc2ccc3c(C)cc(=O)oc3c2)cc1; format: biochemical, unidentified prokaryotic organism
Description: as §3

B1: StGE2 (glucuronoyl esterase) (Thermothelomyces thermophilus ATCC 42464) (protein)
chain: APMNHIFERQDTCSVSDNYPTVNSAKLPDPFTTASGEKVTTKDQFECRRAEINKILQQYELGEYPGPPDSVEASLSGNSITVRVTVGSKSISFSASIRKPSGAGPFPAIIGIGGASIPIPSNVATITFNNDEFGAQMGSGSRGQGKFYDLFGRDHSAGSLTAWAWGVDRLIDGLEQVGAQASGIDTKRLGVTGCSRNGKGAFITGALVDRIALTIPQESGAGGAACWRISDQQKAAGANIQTAAQIITENPWFSRNFDPHVNSITSVPQDHHLLAALIVPRGLAVFENNIDWLGPVSTTGCMAAGRLIYKAYGVPNNMGFSLVGGHNHCQFPSSQNQDLNSYINYFLLGQGSPSGVEHSDVNVNVAEWAPWGAGAPTLA
notes: recombinant, expressed in Komagataella phaffii (Pichia pastoris), purified
Km [1]: 4.7 ± 0.4 µM
Km [2]: 0.7 ± 0.1 µM

B2: IsPETase (Pseudideonella sakaiensis) (protein)
chain: QTNPYARGPNPTAASLEASAGPFTVRSFTVSRPSGYGAGTVYYPTNAGGTVGAIAIVPGYTARQSSIKWWGPRLASHGFVVITIDTNSTLDQPSSRSSQQMAALRQVASLNGTSSSPIYGKVDTARMGVMGWSMGGGGSLISAANNPSLKAAAPQAPWDSSTNFSSVTVPTLIFACENDSIAPVNSSALPIYDSMSRNAKQFLEINGGSHSCANSGNSNQALIGKKGVAWMKRFMDNDTRYSTFACENPNSTRVSDFRTANCS
notes: recombinant, pET-22b(+), E. coli BL21, intracellular fraction, purified
Km [3]: 9.3 ± 0.8 µM
kcat [3]: 3.8e-05 ± 1e-06 s⁻¹
Km [4]: 34.1 ± 5.5 µM
Km [5]: 6.7 ± 0.6 µM
kcat [5]: 5e-05 ± 2e-06 s⁻¹

B3: LCC^ICCG (leaf-branch compost cutinase ICCG variant) (unidentified prokaryotic organism; D238C/F243I/S283C/Y127G) (protein)
chain: QSNPYQRGPNPTRSALTADGPFSVATYTVSRLSVSGFGGGVIYYPTGTSLTFGGIAMSPGYTADASSLAWLGRRLASHGFVVLVINTNSRFDGPDSRASQLSAALNYLRTSSPSAVRARLDANRLAVAGHSMGGGGTLRIAEQNPSLKAAVPLTPWHTDKTFNTSVPVLIVGAEADTVAPVSQHAIPFYQNLPSTTPKVYVELCNASHIAPNSNNAAISVYTISWMKLWVDNDTRYRQFLCNVNDPALCDFRTNNRHCQ
notes: recombinant engineered variant ICCG, pET-22b(+), E. coli BL21, intracellular fraction, purified
Km [6]: 7.2 ± 0.7 µM
kcat [6]: 5.8e-05 ± 2e-06 s⁻¹
Km [7]: 21.7 ± 2.8 µM
kcat [7]: 1.3e-05 ± 1e-06 s⁻¹
Km [8]: 1.6 ± 0.1 µM
kcat [8]: 3.4e-05 ± 1e-06 s⁻¹
